Values of other authors as cited in publication PMC5735807.

Key:
CD36 (Homo sapiens) = CD36 (Homo sapiens) (UniProt P16671)
Fas (Homo sapiens) = Fas (Homo sapiens) (UniProt P25445)
Fas (Homo sapiens), sequence (P25445 26-335): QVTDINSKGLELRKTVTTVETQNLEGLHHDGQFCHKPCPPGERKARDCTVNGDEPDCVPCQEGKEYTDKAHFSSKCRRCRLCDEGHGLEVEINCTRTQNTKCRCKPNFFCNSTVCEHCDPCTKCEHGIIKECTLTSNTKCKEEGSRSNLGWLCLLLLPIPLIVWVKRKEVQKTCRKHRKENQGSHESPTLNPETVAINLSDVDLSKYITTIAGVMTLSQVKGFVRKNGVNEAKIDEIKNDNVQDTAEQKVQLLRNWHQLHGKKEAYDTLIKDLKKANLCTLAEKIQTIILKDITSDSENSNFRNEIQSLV

FasL, sequence (P48023 1-81): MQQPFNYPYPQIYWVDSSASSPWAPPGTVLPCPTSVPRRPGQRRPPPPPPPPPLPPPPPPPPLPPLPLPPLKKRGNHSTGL
CD36 (Homo sapiens), sequence (P16671 2-472): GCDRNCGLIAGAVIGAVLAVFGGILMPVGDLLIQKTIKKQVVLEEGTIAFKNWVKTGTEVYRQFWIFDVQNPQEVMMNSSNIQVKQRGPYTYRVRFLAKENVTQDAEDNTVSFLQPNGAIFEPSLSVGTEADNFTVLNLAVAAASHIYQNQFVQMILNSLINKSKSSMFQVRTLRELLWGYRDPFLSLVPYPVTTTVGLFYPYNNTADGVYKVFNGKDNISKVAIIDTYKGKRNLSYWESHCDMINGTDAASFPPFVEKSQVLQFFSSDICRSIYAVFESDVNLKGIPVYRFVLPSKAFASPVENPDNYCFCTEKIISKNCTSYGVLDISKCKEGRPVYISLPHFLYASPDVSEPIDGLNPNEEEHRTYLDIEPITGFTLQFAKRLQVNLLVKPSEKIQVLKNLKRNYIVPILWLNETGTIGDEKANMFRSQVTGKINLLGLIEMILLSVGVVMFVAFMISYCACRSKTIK
TSP1, sequence (P07996 19-1170): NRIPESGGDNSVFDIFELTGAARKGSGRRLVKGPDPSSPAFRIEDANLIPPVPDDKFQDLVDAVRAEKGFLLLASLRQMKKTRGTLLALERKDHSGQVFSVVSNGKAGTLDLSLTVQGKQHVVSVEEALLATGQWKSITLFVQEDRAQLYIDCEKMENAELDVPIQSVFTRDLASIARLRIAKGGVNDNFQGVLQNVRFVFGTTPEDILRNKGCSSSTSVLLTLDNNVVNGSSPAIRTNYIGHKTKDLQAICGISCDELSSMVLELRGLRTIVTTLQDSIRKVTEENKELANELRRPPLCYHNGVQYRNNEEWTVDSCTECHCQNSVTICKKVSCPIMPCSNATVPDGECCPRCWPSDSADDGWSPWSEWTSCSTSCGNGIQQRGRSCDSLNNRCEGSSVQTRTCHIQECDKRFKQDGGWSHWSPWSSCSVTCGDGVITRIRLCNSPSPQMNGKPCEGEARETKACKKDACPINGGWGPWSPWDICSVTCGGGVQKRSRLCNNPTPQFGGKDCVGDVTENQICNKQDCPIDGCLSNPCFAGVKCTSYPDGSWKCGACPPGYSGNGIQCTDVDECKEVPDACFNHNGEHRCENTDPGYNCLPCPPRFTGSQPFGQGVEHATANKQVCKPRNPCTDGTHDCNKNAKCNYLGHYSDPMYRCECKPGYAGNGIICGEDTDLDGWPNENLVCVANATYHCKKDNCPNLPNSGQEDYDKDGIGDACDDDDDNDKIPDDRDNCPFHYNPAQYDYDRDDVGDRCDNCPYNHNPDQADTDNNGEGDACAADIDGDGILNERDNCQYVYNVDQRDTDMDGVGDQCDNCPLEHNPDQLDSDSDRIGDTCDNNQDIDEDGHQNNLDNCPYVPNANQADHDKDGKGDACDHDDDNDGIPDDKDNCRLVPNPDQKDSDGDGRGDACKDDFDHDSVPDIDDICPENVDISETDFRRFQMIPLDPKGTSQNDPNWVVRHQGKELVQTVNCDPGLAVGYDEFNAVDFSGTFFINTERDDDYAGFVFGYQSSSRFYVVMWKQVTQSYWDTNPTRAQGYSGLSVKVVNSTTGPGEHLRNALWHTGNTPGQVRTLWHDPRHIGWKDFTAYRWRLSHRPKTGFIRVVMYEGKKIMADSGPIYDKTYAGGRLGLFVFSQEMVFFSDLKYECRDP

Row | Kd (CD36 (Homo sapiens)) [nM] | Kd (Fas (Homo sapiens)) [nM] | Substance
1 | 230 | – | TSP1 (from UniProt P07996)
2 | – | 0.4 | FasL (from UniProt P48023)
